Legend:
[1] = molecular target: T1, FcγRIa extracellular domain with C-terminal His tag (human, UniProt P12314 16-292); assay: SPR, binding relative to GpH7-A5/GpH7-B3/GpL16-k0 = 100
T1 construct: extracellular domain; soluble analyte in Biacore; also called FcgRI; not shown: His tag at the C terminus

[2] = molecular target: T2, FcγRIIb extracellular domain with C-terminal His tag (human, UniProt P31994 43-217); assay: as above
T2 construct: extracellular domain; soluble analyte in Biacore; also called FcgRIIb; not shown: His tag at the C terminus
T2 sequence (looked up): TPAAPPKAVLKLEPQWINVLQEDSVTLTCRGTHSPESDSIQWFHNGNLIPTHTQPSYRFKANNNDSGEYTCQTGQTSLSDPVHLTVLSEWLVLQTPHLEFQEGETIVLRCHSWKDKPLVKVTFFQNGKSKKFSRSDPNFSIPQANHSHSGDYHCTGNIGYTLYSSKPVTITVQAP

[3] = molecular target: T1, FcγRIa extracellular domain with …; assay: SPR; He/Con_1a divided by He/Con_2b (FcγRIa against FcγRIIb)
Experimental: The heterodimerized antibodies He Abs in which one of the H chains was introduced with an alteration were assayed for their binding activities to each activating FcγR and inhibitory FcγR according to the method described in Example 4. […] The activating FcγRs in FIGS. 26, 27, 28, and 29 are FcγRIa, FcγRIIa (R), FcγRIIa (H), and FcγRIIIa, respectively.
Analysis of interaction between objective antibody and the FcγR was carried out using Biacore T100 (GE Healthcare). HBS-EP+ (GE Healthcare) was used as the running buffer, and the measurement temperature was set to 25° C. Chips produced by immobilizing the antigen peptide by the amine coupling method to a Series S Sencor Chip CM5 (GE Healthcare), or alternatively, chips produced by allowing preliminarily biotinylated antigen peptides to interact with and immobilize onto a Series S Sensor Chip SA (certified) (GE Healthcare) were used. Antibodies of interest were captured onto an antigen peptide-immobilized chip, and allowed to interact to each FcγR diluted with running buffer. To regenerate and repeatedly use the chip, the antibodies captured on the chip were washed off by reacting 10 mM glycine-HCl, pH 1.5.

T1 sequence (P12314 16-292): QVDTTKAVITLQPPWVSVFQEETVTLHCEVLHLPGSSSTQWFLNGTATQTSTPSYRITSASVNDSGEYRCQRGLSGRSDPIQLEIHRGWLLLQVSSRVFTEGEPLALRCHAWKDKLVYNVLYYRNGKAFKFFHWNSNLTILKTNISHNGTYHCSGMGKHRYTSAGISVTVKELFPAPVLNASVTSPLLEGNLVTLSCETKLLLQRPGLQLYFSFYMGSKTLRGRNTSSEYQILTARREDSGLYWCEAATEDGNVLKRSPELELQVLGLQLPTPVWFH

| Binder | He/Con_1a [1] | He/Con_2b [2] | He_1a/2b (Ia/IIb) [3] [ratio] |
| --- | --- | --- | --- |
| GpH7-A5/GpH7-B3 variant P271_03V/GpL16-k0 (antibody, human IgG1, kappa, change in the GpH7-B3 H chain only; also called He Ab) heavy 1: not shown heavy 2: not shown light: DIVMTQSPLSLPVTPGEPASISCQASESLVHSNRNTYLHWYLQKPGQSPQLLIYKVSNRFSGVPDRFSGSGSGTDFTLKISRVEAEDVGVYYCSQNTHVPPTFGQGTKVEIERTVAAPSVFIFPPSDEQLKSGTASVVCLLNNFYPREAKVQWKVDNALQSGNSQESVTEQDSKDSTYSLSSTLTLSKADYEKHKVYACEVTHQGLSSPVTKSFNRGEC | 102 % of control | 74.8 % of control | 1.37 |
| GpH7-A5/GpH7-B3 variant P271_04F/GpL16-k0 (antibody, human IgG1, kappa, change in the GpH7-B3 H chain only; also called He Ab) heavy 1: not shown heavy 2: not shown light: DIVMTQSPLSLPVTPGEPASISCQASESLVHSNRNTYLHWYLQKPGQSPQLLIYKVSNRFSGVPDRFSGSGSGTDFTLKISRVEAEDVGVYYCSQNTHVPPTFGQGTKVEIERTVAAPSVFIFPPSDEQLKSGTASVVCLLNNFYPREAKVQWKVDNALQSGNSQESVTEQDSKDSTYSLSSTLTLSKADYEKHKVYACEVTHQGLSSPVTKSFNRGEC | 102 % of control | 59.5 % of control | 1.71 |
| GpH7-A5/GpH7-B3 variant P271_06M/GpL16-k0 (antibody, human IgG1, kappa, change in the GpH7-B3 H chain only; also called He Ab) heavy 1: not shown heavy 2: not shown light: DIVMTQSPLSLPVTPGEPASISCQASESLVHSNRNTYLHWYLQKPGQSPQLLIYKVSNRFSGVPDRFSGSGSGTDFTLKISRVEAEDVGVYYCSQNTHVPPTFGQGTKVEIERTVAAPSVFIFPPSDEQLKSGTASVVCLLNNFYPREAKVQWKVDNALQSGNSQESVTEQDSKDSTYSLSSTLTLSKADYEKHKVYACEVTHQGLSSPVTKSFNRGEC | 102 % of control | 77.5 % of control | 1.32 |
| GpH7-A5/GpH7-B3 variant P271_07I/GpL16-k0 (antibody, human IgG1, kappa, change in the GpH7-B3 H chain only; also called He Ab) heavy 1: not shown heavy 2: not shown light: DIVMTQSPLSLPVTPGEPASISCQASESLVHSNRNTYLHWYLQKPGQSPQLLIYKVSNRFSGVPDRFSGSGSGTDFTLKISRVEAEDVGVYYCSQNTHVPPTFGQGTKVEIERTVAAPSVFIFPPSDEQLKSGTASVVCLLNNFYPREAKVQWKVDNALQSGNSQESVTEQDSKDSTYSLSSTLTLSKADYEKHKVYACEVTHQGLSSPVTKSFNRGEC | 102 % of control | 76.8 % of control | 1.33 |

Continued, values first:

| He/Con_1a [1] | He/Con_2b [2] | He_1a/2b (Ia/IIb) [3] [ratio] | Binder |
| --- | --- | --- | --- |
| 103 % of control | 52.3 % of control | 1.97 | GpH7-A5/GpH7-B3 variant P271_15Y/GpL16-k0 (antibody, human IgG1, kappa, change in the GpH7-B3 H chain only; also called He Ab) heavy 1: not shown heavy 2: not shown light: DIVMTQSPLSLPVTPGEPASISCQASESLVHSNRNTYLHWYLQKPGQSPQLLIYKVSNRFSGVPDRFSGSGSGTDFTLKISRVEAEDVGVYYCSQNTHVPPTFGQGTKVEIERTVAAPSVFIFPPSDEQLKSGTASVVCLLNNFYPREAKVQWKVDNALQSGNSQESVTEQDSKDSTYSLSSTLTLSKADYEKHKVYACEVTHQGLSSPVTKSFNRGEC |
| 102 % of control | 67.9 % of control | 1.5 | GpH7-A5/GpH7-B3 variant P271_16H/GpL16-k0 (antibody, human IgG1, kappa, change in the GpH7-B3 H chain only; also called He Ab) heavy 1: not shown heavy 2: not shown light: DIVMTQSPLSLPVTPGEPASISCQASESLVHSNRNTYLHWYLQKPGQSPQLLIYKVSNRFSGVPDRFSGSGSGTDFTLKISRVEAEDVGVYYCSQNTHVPPTFGQGTKVEIERTVAAPSVFIFPPSDEQLKSGTASVVCLLNNFYPREAKVQWKVDNALQSGNSQESVTEQDSKDSTYSLSSTLTLSKADYEKHKVYACEVTHQGLSSPVTKSFNRGEC |
| 103 % of control | 58.1 % of control | 1.77 | GpH7-A5/GpH7-B3 variant P271_20W/GpL16-k0 (antibody, human IgG1, kappa, change in the GpH7-B3 H chain only; also called He Ab) heavy 1: not shown heavy 2: not shown light: DIVMTQSPLSLPVTPGEPASISCQASESLVHSNRNTYLHWYLQKPGQSPQLLIYKVSNRFSGVPDRFSGSGSGTDFTLKISRVEAEDVGVYYCSQNTHVPPTFGQGTKVEIERTVAAPSVFIFPPSDEQLKSGTASVVCLLNNFYPREAKVQWKVDNALQSGNSQESVTEQDSKDSTYSLSSTLTLSKADYEKHKVYACEVTHQGLSSPVTKSFNRGEC |
